The text below walks through data of article PMC5677581 (2017).

βAla = NCCC(=O)O Some results are limits rather than exact numbers.

Assay [1] addresses T1, MLL1 (Homo sapiens).
T1 chain: {fluorescein-βAla}-SDIMDFVLKNTP-NH2
The experiment in a line: fluorescence polarization. A general note: Polarisation of emitted light reports the rotation of a fluorescent probe.

In assay [2] the target is T2, MLL-WT (Homo sapiens).
T2 chain: {fluorescein-βAla}-DCGNILPSDIMDFVLKNTP-NH2
The assay can be described thus: fluorescence polarization.

Assay [3] addresses T3, MLL-WT (Homo sapiens).
T3 chain: Ac-DCGNILPSDIMDFVLKNTP-NH2
The assay can be described thus: fluorescence polarization competition.

Assay [4] addresses T4, MLL1 (Homo sapiens).
T4 chain: Ac-SDIMDFVLKNTP-NH2
The assay can be described thus: fluorescence polarization competition.

B1: KIX domain of CBP KIX (protein)
chain: not shown
In the case of B1, the Kd is more than 100 µM in assay [1] and 1 µM in assay [2]. Also, the results for the Ki in assay [3] and in assay [4] were 3 µM and more than 1000 µM, respectively.

Usually Kd stands for a measure of binding affinity in units of concentration. Read a low Kd as a tighter complex. One may read the Ki as the equilibrium dissociation constant of an inhibitor or competing ligand from its target.
